Assay results published in publication PMC10397247.
Where two headings read alike, the source gives them in different places.

Columns and labels:
Assay in all cases: two-hybrid library CCmax;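 note: natural log of median RNA to DNA barcode read ratio; higher means stronger binding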
4H2253-AA = biological target: T1, 4H2253-AA
T1 chain: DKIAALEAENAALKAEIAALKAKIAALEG

4H2274-AA = biological target: T2, 4H2274-AA
T2 chain: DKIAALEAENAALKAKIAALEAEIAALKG

4H2330-AA = biological target: T3, 4H2330-AA; details: mean of both orientations
T3 chain: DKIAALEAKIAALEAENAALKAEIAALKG

4H2389-AA = biological target: T4, 4H2389-AA; details: mean of both orientations
T4 chain: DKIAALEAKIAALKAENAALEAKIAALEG

4H2438-AA = biological target: T5, 4H2438-AA; details: mean of both orientations
T5 chain: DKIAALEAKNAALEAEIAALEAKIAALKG

4H2473-AA = biological target: T6, 4H2473-AA; details: mean of both orientations
T6 chain: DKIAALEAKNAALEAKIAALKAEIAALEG

4H2611-AA = biological target: T7, 4H2611-AA; details: mean of both orientations
T7 chain: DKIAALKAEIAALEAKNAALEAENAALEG

4H2725-AA = biological target: T8, 4H2725-AA; details: mean of both orientations
T8 chain: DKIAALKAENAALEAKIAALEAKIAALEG

4H2865-AA = biological target: T9, 4H2865-AA; details: mean of both orientations
T9 chain: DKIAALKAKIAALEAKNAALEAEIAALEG

4H3009-AA = biological target: T10, 4H3009-AA; details: mean of both orientations
T10 chain: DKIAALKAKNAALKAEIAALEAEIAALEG

4H3016-AA = biological target: T11, 4H3016-AA; details: mean of both orientations
T11 chain: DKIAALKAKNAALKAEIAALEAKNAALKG

4H3120-AA = biological target: T12, 4H3120-AA; details: mean of both orientations
T12 chain: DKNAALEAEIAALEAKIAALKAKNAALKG

4H3130-AA = biological target: T13, 4H3130-AA; details: mean of both orientations
T13 chain: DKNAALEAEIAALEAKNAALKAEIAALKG

4H3165-AA = biological target: T14, 4H3165-AA; details: mean of both orientations
T14 chain: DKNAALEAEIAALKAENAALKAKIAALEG

4H3381-AA = biological target: T15, 4H3381-AA; details: mean of both orientations
T15 chain: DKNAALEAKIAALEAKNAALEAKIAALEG

4H3395-AA = biological target: T16, 4H3395-AA; details: mean of both orientations
T16 chain: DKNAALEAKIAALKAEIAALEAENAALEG

4H3410-AA = biological target: T17, 4H3410-AA; details: mean of both orientations
T17 chain: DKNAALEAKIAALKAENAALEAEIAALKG

4H3590-AA = biological target: T18, 4H3590-AA
T18 chain: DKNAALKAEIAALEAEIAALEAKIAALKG

4H3606-AA = biological target: T19, 4H3606-AA; details: mean of both orientations
T19 chain: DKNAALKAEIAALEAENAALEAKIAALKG

4H3631-AA = biological target: T20, 4H3631-AA
T20 chain: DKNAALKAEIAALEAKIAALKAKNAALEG

4H3697-AA = biological target: T21, 4H3697-AA; details: mean of both orientations
T21 chain: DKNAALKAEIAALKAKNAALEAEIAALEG

4H3718-AA = biological target: T22, 4H3718-AA; details: mean of both orientations
T22 chain: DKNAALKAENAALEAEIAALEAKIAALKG

4H3753-AA = biological target: T23, 4H3753-AA; details: mean of both orientations
T23 chain: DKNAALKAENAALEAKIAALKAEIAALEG

4H3865-AA = biological target: T24, 4H3865-AA; details: mean of both orientations
T24 chain: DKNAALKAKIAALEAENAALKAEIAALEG

4H458-AA = biological target: T25, 4H458-AA; details: mean of both orientations
T25 chain: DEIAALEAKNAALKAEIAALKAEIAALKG

4H536-AA = biological target: T26, 4H536-AA; details: mean of both orientations
T26 chain: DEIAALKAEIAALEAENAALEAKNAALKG

4H570-AA = biological target: T27, 4H570-AA; details: mean of both orientations
T27 chain: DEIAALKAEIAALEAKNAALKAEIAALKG

4H629-AA = biological target: T28, 4H629-AA; details: mean of both orientations
T28 chain: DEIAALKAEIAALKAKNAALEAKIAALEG

4H697-AA = biological target: T29, 4H697-AA; details: mean of both orientations
T29 chain: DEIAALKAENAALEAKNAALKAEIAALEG

4H710-AA = biological target: T30, 4H710-AA; details: mean of both orientations
T30 chain: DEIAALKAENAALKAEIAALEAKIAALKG

4H745-AA = biological target: T31, 4H745-AA; details: mean of both orientations
T31 chain: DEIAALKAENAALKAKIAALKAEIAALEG

4H797-AA = biological target: T32, 4H797-AA; details: mean of both orientations
T32 chain: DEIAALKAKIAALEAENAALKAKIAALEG

4H850-AA = biological target: T33, 4H850-AA; details: mean of both orientations
T33 chain: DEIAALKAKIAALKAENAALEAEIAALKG

4H891-AA = biological target: T34, 4H891-AA; details: mean of both orientations
T34 chain: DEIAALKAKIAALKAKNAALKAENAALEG

4H909-AA = biological target: T35, 4H909-AA; details: mean of both orientations
T35 chain: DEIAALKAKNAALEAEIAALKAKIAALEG

4H930-AA = biological target: T36, 4H930-AA; details: mean of both orientations
T36 chain: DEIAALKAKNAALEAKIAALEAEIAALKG

4H982-AA = biological target: T37, 4H982-AA; details: mean of both orientations
T37 chain: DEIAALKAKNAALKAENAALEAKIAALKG

4H249-AA = biological target: T38, 4H249-AA; details: mean of both orientations
T38 chain: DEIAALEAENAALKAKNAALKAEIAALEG

4H_APH = biological target: T39, 4H_APH
T39 chain: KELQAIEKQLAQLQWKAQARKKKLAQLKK

4H_BCR = biological target: T40, 4H_BCR; details: mean of both orientations
T40 chain: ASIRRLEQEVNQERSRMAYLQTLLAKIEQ

4H_GCN4 = biological target: 4H_GCN4
GCN2_T = details: mean of both orientations

Sequence of 4H_GCN4 (chain, as listed by the source): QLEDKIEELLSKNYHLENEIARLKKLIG

Binder: DENAALEAEIAALKAKNAALEAKIAALKG [4H1142-AA]
- interaction score (4H2253-AA; mean of both orientations): -1.49
- interaction score (4H2274-AA): -1.11
- interaction score (4H2330-AA): -1.84
- interaction score (4H2389-AA): -0.327
- interaction score (4H2438-AA): -0.434
- interaction score (4H2473-AA): -2.06
- interaction score (4H2611-AA): -0.194
- interaction score (4H2725-AA): -1.15
- interaction score (4H2865-AA): 1.33
- interaction score (4H3009-AA): -0.415
- interaction score (4H3016-AA): 0.156
- interaction score (4H3120-AA): -1.55
- interaction score (4H3130-AA): 0.0677
- interaction score (4H3165-AA): -0.754
- interaction score (4H3381-AA): -0.986
- interaction score (4H3395-AA): -1.76
- interaction score (4H3410-AA): 0.438
- interaction score (4H3590-AA; mean of both orientations): 0.23
- interaction score (4H3606-AA): 1.65
- interaction score (4H3631-AA): -1.43
- interaction score (4H3697-AA): 2.08
- interaction score (4H3718-AA): -1.33
- interaction score (4H3753-AA): -2.1
- interaction score (4H3865-AA): 0.444
- interaction score (4H458-AA): -1.34
- interaction score (4H536-AA): -1.1
- interaction score (4H570-AA): -0.319
- interaction score (4H629-AA): 0.124
- interaction score (4H697-AA): -1.71
- interaction score (4H710-AA): -1.52
- interaction score (4H745-AA): -1.19
- interaction score (4H797-AA): -1.29
- interaction score (4H850-AA): 0.681
- interaction score (4H891-AA): -1.23
- interaction score (4H909-AA): -1.05
- interaction score (4H930-AA): -1.1
- interaction score (4H982-AA): -1.22

Binder: DKIAALEAENAALKAEIAALKAKIAALEG [4H2253-AA]
- interaction score (4H2253-AA): 2.28
- interaction score (4H2274-AA; mean of both orientations): -0.65
- interaction score (4H2330-AA): -1.14
- interaction score (4H2389-AA): -1.29
- interaction score (4H2438-AA): -0.259
- interaction score (4H2473-AA): -1.02
- interaction score (4H249-AA): -1.56
- interaction score (4H2725-AA): -0.468
- interaction score (4H2865-AA): -1.42
- interaction score (4H3009-AA): 0.841
- interaction score (4H3016-AA): -0.709
- interaction score (4H3120-AA): -1.77
- interaction score (4H3130-AA): -1.14
- interaction score (4H3165-AA): -1.44
- interaction score (4H3381-AA): -1.4
- interaction score (4H3395-AA): -1.22
- interaction score (4H3410-AA): -0.76
- interaction score (4H3590-AA): -1.09
- interaction score (4H3697-AA): -1.65
- interaction score (4H3753-AA): -1.13
- interaction score (4H3865-AA): -1.13
- interaction score (4H458-AA): 0.0604
- interaction score (4H536-AA): -1.37
- interaction score (4H570-AA): -1.41
- interaction score (4H629-AA): -1.74
- interaction score (4H710-AA): 0.741
- interaction score (4H745-AA): 0.647
- interaction score (4H797-AA): -1.07
- interaction score (4H850-AA): -0.973
- interaction score (4H891-AA): -1.7
- interaction score (4H909-AA): -0.788
- interaction score (4H930-AA): -1.04
- interaction score (4H_APH): -1.1
- interaction score (4H_BCR): -1.47
- interaction score (4H_GCN4): -1.12
- interaction score (GCN2_T): -1.56

Binder: DENAALEAKIAALEAENAALKAKIAALKG [4H1310-AA]
- interaction score (4H2253-AA; mean of both orientations): -0.556
- interaction score (4H2274-AA; mean of both orientations): -1.15
- interaction score (4H2330-AA): 1.35
- interaction score (4H2389-AA): 1.17
- interaction score (4H2438-AA): -0.264
- interaction score (4H2473-AA): -1.02
- interaction score (4H2611-AA): -1.46
- interaction score (4H2725-AA): -1.12
- interaction score (4H2865-AA): 1.76
- interaction score (4H3009-AA): 0.0502
- interaction score (4H3016-AA): 0.425
- interaction score (4H3120-AA): -1.24
- interaction score (4H3130-AA): 0.822
- interaction score (4H3165-AA): 0.0119
- interaction score (4H3381-AA): -1.23
- interaction score (4H3395-AA): -0.984
- interaction score (4H3410-AA): 1.9
- interaction score (4H3590-AA; mean of both orientations): -0.24
- interaction score (4H3606-AA): 2.23
- interaction score (4H3631-AA; mean of both orientations): -1.57
- interaction score (4H3697-AA): 0.439
- interaction score (4H3718-AA): -1.04
- interaction score (4H3753-AA): -1.37
- interaction score (4H3865-AA): 2.2
- interaction score (4H458-AA): -1.3
- interaction score (4H536-AA): -1.27
- interaction score (4H570-AA): 0.408
- interaction score (4H629-AA): -1.49
- interaction score (4H697-AA): -1.05
- interaction score (4H710-AA): -0.684
- interaction score (4H745-AA): -1.11
- interaction score (4H797-AA): 1.92
- interaction score (4H850-AA): 1.87
- interaction score (4H891-AA): -1.69
- interaction score (4H909-AA): -1.21
- interaction score (4H930-AA): -1.4
- interaction score (4H982-AA): -1.4

Binder: DENAALKAEIAALKAENAALKAEIAALKG [4H1626-AA]
- interaction score (4H2253-AA; mean of both orientations): -1.52
- interaction score (4H2274-AA; mean of both orientations): -1.5
- interaction score (4H2330-AA): -1.37
- interaction score (4H2389-AA): -1.4
- interaction score (4H2438-AA): -1.65
- interaction score (4H2473-AA): -1.45
- interaction score (4H249-AA): -1.39
- interaction score (4H2611-AA): -1.57
- interaction score (4H2725-AA): -1.77
- interaction score (4H2865-AA): -1.68
- interaction score (4H3009-AA): -1.64
- interaction score (4H3016-AA): -1.84
- interaction score (4H3120-AA): -1.91
- interaction score (4H3130-AA): -0.637
- interaction score (4H3165-AA): -0.447
- interaction score (4H3381-AA): -1.5
- interaction score (4H3395-AA): -1.69
- interaction score (4H3410-AA): -0.738
- interaction score (4H3590-AA; mean of both orientations): -1.51
- interaction score (4H3697-AA): -1.21
- interaction score (4H3753-AA): -1.54
- interaction score (4H3865-AA): -0.626
- interaction score (4H458-AA): -1.65
- interaction score (4H536-AA): -1.73
- interaction score (4H570-AA): 0.298
- interaction score (4H629-AA): -1.63
- interaction score (4H710-AA): -1.04
- interaction score (4H745-AA): -1.25
- interaction score (4H797-AA): -1.41
- interaction score (4H850-AA): 1.29
- interaction score (4H891-AA): -1.64
- interaction score (4H909-AA): -1.36
- interaction score (4H930-AA): -1.25
